From PMC5507773, “Argonaute Utilization for miRNA Silencing Is Determined by Phosphorylation-Dependent Recruitment of LIM-Domain-Containing Proteins” (Cell Reports, 2017)

Molecular target: T1, purified un-tagged AGO2 (hAGO2) (human, UniProt Q9UKV8 1-859)
T1 construct: AGO2, human, un-tagged; also called un-tagged crystallography grade hAGO2; source: purified, un-tagged, crystallography grade (De and Macrae, 2011)
Test: pull-down; MBP direct binding assay: purified un-tagged hAGO2 with MBP-VO, MBP-LIMD1 or MBP-LIMD1 140-166
Conditions: both partners purified

T1 sequence (Q9UKV8 whole entry): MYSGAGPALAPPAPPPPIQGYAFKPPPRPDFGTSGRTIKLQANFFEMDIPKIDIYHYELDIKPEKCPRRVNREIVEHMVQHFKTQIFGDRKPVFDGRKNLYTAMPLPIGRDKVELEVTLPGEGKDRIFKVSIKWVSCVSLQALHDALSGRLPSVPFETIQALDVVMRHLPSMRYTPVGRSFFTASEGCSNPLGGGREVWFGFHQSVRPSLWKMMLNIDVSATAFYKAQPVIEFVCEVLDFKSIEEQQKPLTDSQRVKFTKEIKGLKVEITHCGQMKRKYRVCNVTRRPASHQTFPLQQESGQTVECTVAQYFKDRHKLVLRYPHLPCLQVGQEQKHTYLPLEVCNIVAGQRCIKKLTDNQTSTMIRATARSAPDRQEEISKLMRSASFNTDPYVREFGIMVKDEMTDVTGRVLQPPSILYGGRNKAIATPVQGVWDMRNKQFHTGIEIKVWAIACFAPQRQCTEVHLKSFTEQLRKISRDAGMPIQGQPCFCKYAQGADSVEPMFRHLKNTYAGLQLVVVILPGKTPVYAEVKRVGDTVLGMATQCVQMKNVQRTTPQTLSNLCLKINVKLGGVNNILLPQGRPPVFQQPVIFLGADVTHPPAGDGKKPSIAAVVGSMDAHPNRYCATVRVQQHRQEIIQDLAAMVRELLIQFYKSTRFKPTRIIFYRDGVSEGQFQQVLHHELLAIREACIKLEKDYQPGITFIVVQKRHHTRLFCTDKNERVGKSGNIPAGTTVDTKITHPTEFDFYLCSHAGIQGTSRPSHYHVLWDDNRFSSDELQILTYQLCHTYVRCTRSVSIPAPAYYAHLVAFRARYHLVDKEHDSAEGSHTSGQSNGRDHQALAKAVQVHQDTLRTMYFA

B1: maltose binding protein (MBP)-tagged full-length LIMD1 (natural protein)
chain: not shown
notes: LIMD1, full length; also called MBP-LIMD1; MBP-LIMD1 full-length; source: recombinant, purified (details in Supplemental Experimental Procedures)
Q: Does B1 bind?
A: binds

B2: MBP-LIMD1 140–166 (AB motif) (domain or fragment, UniProt Q9UGP4 140-166, looked up)
chain: GTRHGSQDCGSRESLATSEMSAFHQPG
notes: source: recombinant, purified (details in Supplemental Experimental Procedures)
Q: Does B2 bind?
A: binds
